Laboratory results from patent US20230174616A1.
*1 amine or outer side, *2 acyl side, *3 side chain or, on linkers, in order; H or OH if unused. Where no end group is shown, it is not given here. [ ]: non-standard residue; d: D form. Met(35S) = [35S]-methionine label, C[35S]CC[C@H](N[*:1])C(=O)[*:2]

Molecular target: biotinylated hPD-L1 (extracellular domain of human PD-L1, Ala18 to Thr239, expressed in E. coli, non-glycosylated) (human)
Assay: [35S]-labeled truncated variant on immobilized hPD-L1, normalized to [35S]-SPAM

Binder | binding as compared with full-length SPAM
[Met(35S)]LDHILNKFWILHYAGSGSSGHHHHHHSS [Trunc 3 (SPAM with P2, I3 and F4 deleted)] | < 25%
[Met(35S)]DHILNKFWILHYAGSGSSGHHHHHHSS [Trunc 4 (SPAM with P2, I3, F4 and L5 deleted)] | < 25%
